This note sets out measurements from patent US20240270846A1 (published 2024).

Residue numbers refer to the chain shown, from its start. In names and notes the source's numbering stands.

The target of this assay is T1, CD3 epsilon homodimer protein (UniProt P07766 23-126).
T1 construct: also called CD3 (CD3 epsilon)
Nature of the assay: SPR, CD3e homodimer on chip.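 Note: surface plasmon resonance at 25 degrees C, antibodies flowed as analyte over CD3 epsilon homodimer amine-coupled to a CM4 chip, running buffer HBS-EP+.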

T1 sequence (P07766 23-126): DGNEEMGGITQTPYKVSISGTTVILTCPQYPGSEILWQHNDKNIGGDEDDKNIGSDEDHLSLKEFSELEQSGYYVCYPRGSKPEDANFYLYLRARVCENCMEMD

B1: GLS3000 H34A one-arm antibody (H chain CE115HA000) (antibody, human IgG1, kappa, L234A L235A, N297A, name in Kabat numbering)
heavy: QVQLVESGGGVVQPGRSLRLSCAASGFTFSNAWMHWVRQAPGKGLEWVAQIKAKSNNYATYYAESVKGRFTISRDDSKNSLYLQMNSLKTEDTAVYYCRYVHYGAYYGVDAWGQGTTVTVSSASTKGPSVFPLAPSSKSTSGGTAALGCLVKDYFPEPVTVSWNSGALTSGVHTFPAVLQSSGLYSLSSVVTVPSSSLGTQTYICNVNHKPSNTKVDKKVEPKSCDKTHTCPPCPAPEAAGGPSVFLFPPKPKDTLMISRTPEVTCVVVDVSHEDPEVKFNWYVDGVEVHNAKTKPREEQYASTYRVVSVLTVLHQDWLNGKEYKCKVSNKALPAPIEKTISKAKGQPREPQVYTLPPSRCELTKNQVSLSCAVKGFYPSDIAVEWESNGQPENNYKTTPPVLDSDGSFFLVSKLTVDKSRWQQGNVFSCSVMHEALHNHYTQKSLSLSPDYKDDDDK
chain: EPKSSDKTHTCPPCPAPELLGGPSVFLFPPKPKDTLMISRTPEVTCVVVDVSHEDPEVKFNWYVDGVEVHNAKTKPREEQYNSTYRVVSVLTVLHQDWLNGKEYKCKVSNKALPAPIEKTISKAKGQPREPQVCTLPPSRDELTKNQVSLWCLVKGFYPSDIAVEWESNGQPENNYKTTPPVLDSDGSFFLYSKLTVDKSRWQQGNVFSCSVMHEALHNRYTQKSLSLSP
light: DIVMTQSPLSLPVTPGEPASISCRSSQSLVHSNRNTYLAWYQQKPGQAPRLLIYKVSNRFSGVPDRFSGSGSGTDFTLKISRVEAEDVGVYYCGQGTQVPYTFGQGTKLEIKRTVAAPSVFIFPPSDEQLKSGTASVVCLLNNFYPREAKVQWKVDNALQSGNSQESVTEQDSKDSTYSLSSTLTLSKADYEKHKVYACEVTHQGLSSPVTKSFNRGEC
notes: one-arm antibody
Regarding B1, the “ratio of amounts bound (altered form / unaltered GLS3000 antibody)” value worked out at 1.06.

B2: GLS3000 L27bP one-arm antibody (H chain CE115HA000) (antibody, human IgG1, kappa, L234A L235A, N297A, name in Kabat numbering)
heavy: B1 heavy
chain: B1 chain
light: B1 light with L29P, A39H
notes: one-arm antibody
Take B2: the “ratio of amounts bound (altered form / unaltered GLS3000 antibody)” value stood at 0.91.

B3: GLS3000 K50A one-arm antibody (H chain CE115HA000) (antibody, human IgG1, kappa, L234A L235A, N297A, name in Kabat numbering)
heavy: B1 heavy
chain: B1 chain
light: B1 light with A39H, K55A
notes: one-arm antibody
As to B3, the “ratio of amounts bound (altered form / unaltered GLS3000 antibody)” value worked out at 0.23.

B4: GLS3000 L27bM one-arm antibody (H chain CE115HA000) (antibody, human IgG1, kappa, L234A L235A, N297A, name in Kabat numbering)
heavy: B1 heavy
chain: B1 chain
light: B1 light with L29M, A39H
notes: one-arm antibody
As to B4, the “ratio of amounts bound (altered form / unaltered GLS3000 antibody)” value was 0.71.

B5: GLS3000 L27bD one-arm antibody (H chain CE115HA000) (antibody, human IgG1, kappa, L234A L235A, N297A, name in Kabat numbering)
heavy: B1 heavy
chain: B1 chain
light: B1 light with L29D, A39H
notes: one-arm antibody
In the case of B5, the “ratio of amounts bound (altered form / unaltered GLS3000 antibody)” value came to 0.17.

B6: GLS3000 L27bI one-arm antibody (H chain CE115HA000) (antibody, human IgG1, kappa, L234A L235A, N297A, name in Kabat numbering)
heavy: B1 heavy
chain: B1 chain
light: B1 light with L29I, A39H
notes: one-arm antibody
Consider B6, for which the “ratio of amounts bound (altered form / unaltered GLS3000 antibody)” value stood at 1.19.

B7: GLS3000 K50D one-arm antibody (H chain CE115HA000) (antibody, human IgG1, kappa, L234A L235A, N297A, name in Kabat numbering)
heavy: B1 heavy
chain: B1 chain
light: B1 light with A39H, K55D
notes: one-arm antibody
Turning to B7, the “ratio of amounts bound (altered form / unaltered GLS3000 antibody)” value turned out to be 0.22.

B8: GLS3000 L27bE one-arm antibody (H chain CE115HA000) (antibody, human IgG1, kappa, L234A L235A, N297A, name in Kabat numbering)
heavy: B1 heavy
chain: B1 chain
light: B1 light with L29E, A39H
notes: one-arm antibody
Take B8: the “ratio of amounts bound (altered form / unaltered GLS3000 antibody)” value was 0.17.

B9: GLS3000 L27bF one-arm antibody (H chain CE115HA000) (antibody, human IgG1, kappa, L234A L235A, N297A, name in Kabat numbering)
heavy: B1 heavy
chain: B1 chain
light: B1 light with L29F, A39H
notes: one-arm antibody
Take B9: the “ratio of amounts bound (altered form / unaltered GLS3000 antibody)” value is 0.42.

B10: GLS3000 H34D one-arm antibody (H chain CE115HA000) (antibody, human IgG1, kappa, L234A L235A, N297A, name in Kabat numbering)
heavy: B1 heavy
chain: B1 chain
light: B1 light with A39D
notes: one-arm antibody
Take B10: the “ratio of amounts bound (altered form / unaltered GLS3000 antibody)” value was 0.22.
